Assay results taken from the DeepSol protein solubility set.

Assay: soluble on expression in E. coli; label from the status in PepcDB or PDB records

| Sequence | soluble on expression in E. coli |
| --- | --- |
| MKLAVYSTKQYDKKYLQQVNESFGFELEFFDFLLTEKTAKTANGCEAVCIFVNDDGSRPVLEELKKHGVKYIALRCAGFNNVDLDAAKELGLKVVRVPAYDPEAVAEHAIGMMMTLNRRIHRAYQRTRDANFSLEGLTGFTMYGKTAGVIGTGKIGVAMLRILKGFGMRLLAFDPYPSAAALELGVEYVDLPTLFSESDVISLHCPLTPENYHLLNEAAFEQMKNGVMIVNTSRGALIDSQAAIEALKNQKIGSLGMDVYENERDLFFEDKSNDVIQDDVFRRLSACHNVLFTGHQAFLTAEALTSISQTTLQNLSNLEKGETCPNELV | soluble |
| MACERLGGQSGAADVDAAAPAMAAVNLTLGFAGKTVLDQVSMGFPARAVTSLMGPTGSGKTTFLRTLNRMNDKVSGYRYSGDVLLGGRSIFNYRDVLEFRRRVGMLFQRPNPFPMSIMDNVLAGVRAHKLVPRKEFRGVAQARLTEVGLWDAVKDRLSDSPFRLSGGQQQLLCLARTLAVNPEVLLLDEPTSALDPTTTEKIEEFIRSLADRLTVIIVTHNLAQAARISDRAALFFDGRLVEEGPTEQLFSSPKHAETARYVAGLSGDVKDAKRGN | not soluble |
| METKYLRINPADNVAVAIVNLPAGEHLSVDGIEITLNEDIPAGHKFALKDFAEGENVIKYGYPIGHARMAKKQGDWMNETNIKTNLAGLLEYTYHPTQVTLDIPHKNLTFKGYRRKNGDVGVRNEIWIIPTVGCVNGIIGQLAEGLRRETEGKGVDAIVAFPHNYGCSQLGDDHENTKKILRDMVLHPNAGAVLIVGLGCENNQPDVFREFLGDYDQDRVKFMVTQKVGDEYEEGMDILRDLYAKASKDERTEVPLSELRVGLKCGGSDGFSGITANPLLGMFSDFLIAQGGTSVLTEVPEMFGAETILMNRCENKDLFEQTVHLINDFKEYFLSHGEPVGENPSPGNKAGGISTLEEKALGCTQKCGKSYVSGVMPYGERLQKKGLNLLSAPGNDLVAATTLAASGCHMVLFTTGRGTPFGTFVPTMKISTNSTLAKNKPGWIDFNAGVIVENEPMEKTCERFIEYVIKVASGEFVNNEKKGYREIAIFKTGVTL | not soluble |
| MGQSLPLHLLKYPSKFSINIYAAPVSDAREMALGSKDIVFVGSRSAGKVYAVIPDKKNSHGTRVLTIASGLNMPNGVAFHKGALYVAEIGRILRFDNIESNLNNPPEPVVVTTKLPKEKAHGWRFISFGPDDKLYIGIGAPCNVCLMEDPRYATIMRMNTYGQDLEIYARGIRNTVGFDWDPLHHNLWFTDNGRDWLGDNLPPDELNVAPRKGMDFGFPYCYGKSTVDPVYGKIHSCSEFTPAVFEFPAHVAPLGMSFYTGKLFPSNYWGQIFISEHGSWNRSHKIGYQVTTVKIKNNHVTEVKPFISGWLQGEKAWGRPVDTLVMPDGSLLISDDYANVIYRVSYQLEHHHHHH | not soluble |
| AIAASALEQFVNNVRQLSAQGQMTQLCELINKSGELLAKNLSHLDTVLGALDIQEHSLGVLAVLFVKFSMPNIPDFETLFSQVQLFISTCNGEHIRYATDTFAGLCHQLTNALVERKQPLRGISILKQAIDKMQMNTNQLTSVHADLCQLCLLAKCFKPAVPFLELDMMDICKENGAYDAKHFLCYYYYGGMIYTGLKNFERALYFFEQAITTPAMAVSHIMLEAYKKYILVSLILHGKVQQLPKYTSQIVGRFIKPLSNAYHELAQIYATNNPAELRALVNKHSETFTRDNNSGLVKQCLSSLYKKNIQRLTKTFLTLSLQDMASRVQLSGPQEAEKYVLHMIEDGEIYASINQKDGMVCFHDNPEKYNNPAMLHKIDQEML | soluble |
| MTAGEVLSQSEIDALLAALSAGEMSAEELKKEEEGRRVKTYDFRRALRFSKDQIRSLTRIHENFARLLTTFFSAQLRTYVQISVASADQIPYEEFVRSIPKMTIINVFEVPPLGGHVLLEVNPNIAYAMLDRVMGGRGVGMDKVEHLTEIETRIMSNLFDKAFVHWRDAWESVAEVDPLFVDFEVNPQFLRMIAPNDTVVVISLNTQIGEARGMMNVCIPHVVLEPIMPRLSVHYWMQAQKKERSPEEAKRIEQRIRAAKLPIIAELGTAVITVNEFLQLEAGDVIQLEQSIHEPLVVKIGHIPKFIGQPGKRNKKLAVQILAMIEGDEDDHDE | not soluble |
| VIIPDINLLLYAVITGFPQHRRAHAWWQDTVNGHTRIGLTYPALFGFLRIATSARVLAAPLPTADAIAYVREWLSQPNVDLLTAGPRHLDIALGLLDKLGTASHLTTDVQLAAYGIEYDAEIHSSDTDFARFADLKWTDPLRE | not soluble |
| MGSDKIHHHHHHYMDTIPTENVSFTTVSTSLDNLYLALNGIHRKMVSQDLGNQGLGGEPGFIIGREALADDLTWDTQTWHQGFLNWSYPTNATSSYNSGEWETYYKFILNANNILKALNDNFSDESKLTDSEKALANHIKGECLAIRAWSHFNLVQYYAKPYRNGQDNSQPGVPYRTSPEIEPMARNTVEEVYTKIHGDLDEALNLLADYEPNDKNHYSLASVYGLKARALLTQQKYADAATAAVNSINEAEKDGCKIMSQSELMNGFANITSATKEAMYAAMTQNDQTVYFYSFYAYMSWNFNSSSIRTGIKCISQSTYDLMSPTDLRRQWWDPTGKAEVPATSYNQRVYQNRKFTARSTADAVGDFAFMRISEMYLTAAEAFARSNQDAKAKEYLQALLKERDPEYKDLGNTGAKLADEIMTHRRIELWGEGFRWFDLKRLGLPLDRTGSNFDATFCGFLHKDPNADGWIFEIPKKETDFNDLIEKNY | not soluble |
| MFLVDSHCHLDGLDYQSLHKDVDDVLAKAAARDVKFCLAVATTLPGYRHMRKLVGKRDNVVFSCGVHPLNQDEAYDVEELRLLAAEDDVVAMGETGLDYFYTPETKIRQQASFIHHIQIGRELHKPVIVHTRDARADTLAILREEKVTDCGGVLHCFTEDRETAGKLLDLGFYISFSGIVTFRNAEQLRDAARYVPLDRLLVETDSPYLAPVPHRGKENQPAMVRDVAEYMAVLKGVAVEELAQITTDNFARLFHIDASRLSSIR | not soluble |
| MRTILIDWFSDAVREYISRKEAVHLAASLVDRALPMFNIDKMRFQLVGITSMRIAVKYEEIFPPILSNTRHSFDGAILYWKVRLHRRNAHTILDRIMLCTENELGVCRQLLTQGFATSYPSLA | not soluble |
| MSLNREDRLVSAANSYLANNYECFLDDGVILTNNYSLLGTIKLGGIDFLTTSKKDLIELHASIYSVFRNFVTPEFKFYFHTVKKKIVIDETNRDYGLIFSNDFMRAYNEKQKRESFYDISFYLTIEQDLLDTLNEPVMNKKHFADNNFEEFQRIIRAKLENFKDRIELIEELLSKYHPTRLKEYTKDGIIYSKQCEFYNFLVGMNEAPFICNRKDLYLKEKMHGGVKEVYFANKHGKILNDDLSEKYFSAIEISEYAPKSQSDLFDKINALDSEFIFMHAYSPKNSQVLKDKLAFTSRRIIISGGSKEQGMTLGCLSELVGNGDITLGSYGNSLVLFADSFEKMKQSVKECVSSLNAKGFLANAATFSMENYFFAKHCSFITLPFIFDVTSNEGHHHHHH | soluble |
| PPLYVPEQLVVHKETHQAHVMIGSRGYNAYDDKRTALYLLNNILGGPGMNSRLNVSLRERRGLVYTVESNLTSYTDTGAFCIYFGTDPEDVDTCLKLTYKELKRMRDVKMTSSQLMAAKKQLIGQIGVASDNNENNALGMAKTFLHYNKYESSESVFRRIEALTAEGLLEVANEMFAEEYLSTLIYR | not soluble |
| AGQQQPLPVPPLLESRRGQPLFMTVQRAHWSFTPGTRASVWGINGRYLGPTIRVWKGDDVKLIYSNRLTENVSMTVAGLQVPGPLMGGPARMMSPNADWAPVLPIRQNAATLWYHANTPNRTAQQVYNGLAGMWLVEDEVSKSLPIPNHYGVDDFPVIIQDKRLDNFGTPEYNEPGSGGFVGDTLLVNGVQSPYVEVSRGWVRLRLLNASNSRRYQLQMNDGRPLHVISGDQGFLPAPVSVKQLSLAPGERREILVDMSNGDEVSITCGEAASIVDRIRGFFEPSSILVSTLVLTLRPTGLLPLVTDSLPMRLLPTEIMAGSPIRSRDISLGDDPGINGQLWDVNRIDVTAQQGTWERWTVRADEPQAFHIEGVMFQIRNVNGAMPFPEDRGWKDTVWVDGQVELLVYFGQPSWAHFPFYFNSQTLEMADRGSIGQLLVNPVPRSHHHHHH | soluble |
| MMLITTSHRPTRRTRSFGHDLERVFPNSLYLTRGKKTIQELLMEAYDRGYERLLILNVWKGNPLKMTFIKVHPEDWGYLGYLYLHGIKLQREMGFKGLNPIREDMPLVVTTAKRVGWDHIAFAQVFAELTTGKFVPRGDKSLTYIADKYDTDVIAVIERHPRGMVINFYRLDVTKDRPVGPLINVKIWIMEDGRRWDYKEALGIKVPRREKGEGQESSSENRDLEHHHHHH | soluble |
| MAEPVQEELSVLAAIFCRPHEWEVLSRSETDGTVFRIHTKAEGFMDADIPLELVFHLPVNYPSCLPGISINSEQLTRAQCVTVKEKLLEQAESLLSEPMVHELVLWIQQNLRHILSQPETG | soluble |
| MDSKILTMFNQGKHEEAIQAAVKAIDAAPDDPKRYAMLATMLISIKALDQAGELLAKARQLFPEDLELQYTAGLFAYAQADFAAAVSWFAKVRTDQTLKNDATYMLALSYQQAGQPTKALAFALTAHDLAPKQLDTALLAADLLMANDVFDAAARVLKPLLATEQPQVLFTYGMALSAAGKDGSHYLNKAKALDPKGYDQKANIVADINRFLRLQEGLEHHHHHH | not soluble |
| AIAPTGEDNIVVPPAFDGESVSKNKEIYVTFGVDVDAVAGWLGSYGGEDSPFDISRGICAAEVGVPRLLELFRRFDLKTTWFLPGHSVESFPLQMRQVVAAGHEVGAHGYSHENPVRMTPKQEEDVLALSVQILENLTGKKPKGYVAPWWELSAATPELLLRYGFKYDHSQGHHDFQPYYARTAEKWTNIDYSKPARDWMKPLDRGQSVDLVEIPANWYVDDLPPMMFIKSAPNSHGFMNPRDIEDLWRDQFEWVYREYNFAVFPITIHPDVSGRPQVLLMLERFISYIRRFPGVHWTTMEEVAQIFRNKQPFLNA | soluble |
| NEHLGGIYDYLRTRRMQTLTELERTTTIETKTTREAIPETEAKADYRRQKEVAKQLRTLERTVATCEERIGKLESELQAIEMLLQDPKHATDANLFERYAGMKQELEKAMEDWEQASEALSEAQG | not soluble |
| MAHHHHHHMLVRSITKCVVPLIKATSYTSSYIVEHPPTPVRLTSMLPLHNKSMPTPLLDPERLQEISCGTGQPAQRGRRKPLVWKRRKPWFDHQWSLDLQRIKKGPETPHFPDGTPFTQIRSFQSFAGRSWKINAGRRRKIRLSLKRGRRKLL | not soluble |
| MGSDKIHHHHHHMPLKRLNRFRLWLWETPPVYEIRGRCFQIKERLCGYPELHRAFRERTGYELSLHHPCTFHHKITVLKIRRSPRIFVRAVDKIFAKELALEWAHQHGFRLYVARTLAVTKDVSEIRWHELPQRFLIKATHRSGANLFVDQSQAFDLDALRVQSRAWLQYPYGVYKHEWAYWPVPRRLLIEELIEPVDGEELVDYKFHMSRGRCLMIQVNQGLRSGKRTIAILHPSWQLQPVKWVYPQPEVIPQRPDTFYEMLEMASAFSREFPYLRVDLYSVKQVMSGVMVSRVMFGEFTFFPGSGSESVDPFAFDLAIGKEIKL | not soluble |
| MYPQQTSAAVGARKMRVVGVVEETHDARSILVEPHPEHIDAFDYRPGQFLTVRVPDVGSGTARCYSLSSSPHVDSTMKFTVKRVAGGHGSNWLCDEIALGDELEVLPPAGTFTVRSLDQSVVLVAGGSGITPVIAIAKSILHAGTGTVLLVYANRDERSVIFGEQLRELGERFGSRFTVIHVLESVQGYLTAPAMSNLIRPFTDRAVYICGPEPLMKLVKAVCSAEGIAPSQVMTERFVSLSTDPFRNPVEDKPSTSDTGVEVSAQDEAAAGDCTVHVSLDGTERTVAWPRSKRLLDALLDAGVEAPFSCREGACSACVCSLTEGEVRLVRNEVLEADDLADGYILACQAEVVTDQISIKY | not soluble |
